{"source": "patent US20240060126", "proteins": {"B1": {"name": "T4 Dda-E94C/C109A/C136A/A360C (SEQ ID NO: 24 with mutations E94C/C109A/C136A/A360C) (protein)", "chain": "MTFDDLTEGQKNAFNIVMKAIKEKKHHVTINGPAGTGKTTLTKFIIEALISTGETGIILAAPTHAAKKILSKLSGKEASTIHSILKINPVTYECNVLFEQKEVPDLAKARVLICDEVSMYDRKLFKILLSTIPPWATIIGIGDNKQIRPVDPGENTAYISPFFTHKDFYQCELTEVKRSNAPIIDVATDVRNGKWIYDKVVDGHGVRGFTGDTALRDFMVNYFSIVKSLDDLFENRVMAFTNKSVDKLNSIIRKKIFETDKDFIVGEIIVMQEPLFKTYKIDGKPVSEIIFNNGQLVRIIEAEYTSTFVKARGVPGEYLIRHWDLTVETYGDDEYYREKIKIISSDEELYKFNLFLGKTCETYKNWNKGGKAPWSDFWDAKSQFSKVKALPASTFHKAQGMSVDRAFIYTPCIHYADVELAQQLLYVGVTRGRYDVFYV"}}, "key": {"[1]": {"biological_target": "MspA-((Del-L74/G75/D118/L119)D56W/E59R/L88N/D90N/D91N/Q126R/D134R/E139K)8"}, "[2]": {"biological_target": "MspA-((Del-L74/G75/D118/L119)D56F/E59R/L88N/D90N/D91N/Q126R/D134R/E139K)8"}, "[3]": {"biological_target": "MspA-((Del-L74/G75/D118/L119)D56N/E57N/E59N/L88N/D90N/D91N/Q126R/D134R/E139K)8"}, "[4]": {"biological_target": "MspA-(D56N/E59R/G75S/G77S/L88N/D90N/D91N/D118R/Q126R/D134R/E139K)8"}, "[5]": {"biological_target": "MspA-((Del-N79/F80N113N114)D56N/E59R/G75S/G77S/L88N/D90N/D91N/D118R/Q126R/D134R/E139K)8"}, "[6]": {"biological_target": "MspA-((Del-L74/G75/D118/L119)D56N/E59R/L88N/D90N/D91N/Q126R/D134N/E139K)8"}, "[7]": {"biological_target": "MspA-((Del-L74/G75/D118/L119)D56Y/E59R/L88N/D90N/D91N/Q126R/D134R/E139K)8"}, "[8]": {"biological_target": "MspA-((Del-F80/S81/G112/V13)D56N/E59R/G75S/G77S/L88N/D90N/D91N/D118R/Q126R/D134R/E139K)8"}, "[9]": {"biological_target": "MspA-((Del-L74/G75/D118/L119)D56N/E59Q/L88N/D90N/D91N/Q126R/D134R/E139K)8"}, "[10]": {"biological_target": "MspA-((Del-L74/G75/D118/L119)G1A/D56N/E59F/L88N/D90N/D91N/Q126R/D134R/E139K)8"}, "[11]": {"biological_target": "MspA-((Del-L74/G75/D118/L119)E59Y/L88N/D90N/D91N/Q126R/D134R/E139K)8"}, "[12]": {"biological_target": "MspA-((Del-L74/G75/D118/L119)D56N/L88N/D90N/D91N/Q126R/D134R/E139K)8"}}}
{"protein": "B1", "values": [{"measurement": "Average Signal to Noise (S2N)", "setting": "[1]", "result": 10.7}, {"measurement": "Mean Current Range", "setting": "[1]", "result": 14.4, "unit": "pA"}, {"measurement": "Mean Noise of the Signal", "setting": "[1]", "result": 1.35}, {"measurement": "Median Current Range", "setting": "[1]", "result": 14.3, "unit": "pA"}, {"measurement": "Median Noise of the Signal", "setting": "[1]", "result": 1.28}, {"measurement": "Median S2N", "setting": "[1]", "result": 11.9}, {"measurement": "Percentage of complement slipping forwards", "setting": "[1]", "result": 0.25, "unit": "%"}, {"measurement": "Standard Deviation of S2N", "setting": "[1]", "result": 0.33}, {"measurement": "Standard Deviation of the Current Range", "setting": "[1]", "result": 1.79}, {"measurement": "Standard Deviation of the Noise of the Signal", "setting": "[1]", "result": 0.26}, {"measurement": "Average Signal to Noise (S2N)", "setting": "[2]", "result": 11.7}, {"measurement": "Mean Current Range", "setting": "[2]", "result": 15.6, "unit": "pA"}, {"measurement": "Mean Noise of the Signal", "setting": "[2]", "result": 1.33}, {"measurement": "Median Current Range", "setting": "[2]", "result": 15.6, "unit": "pA"}, {"measurement": "Median Noise of the Signal", "setting": "[2]", "result": 1.28}, {"measurement": "Median S2N", "setting": "[2]", "result": 12.3}, {"measurement": "Percentage of complement slipping forwards", "setting": "[2]", "result": 0.38, "unit": "%"}, {"measurement": "Standard Deviation of S2N", "setting": "[2]", "result": 0.59}, {"measurement": "Standard Deviation of the Current Range", "setting": "[2]", "result": 1.92, "unit": "pA"}, {"measurement": "Standard Deviation of the Noise of the Signal", "setting": "[2]", "result": 0.24}, {"measurement": "slips forward per kilobase", "setting": "[2]", "result": "less than 5 slips forward per kilobase"}, {"measurement": "Average Signal to Noise (S2N)", "setting": "[3]", "result": 13}, {"measurement": "Mean Current Range", "setting": "[3]", "result": 19, "unit": "pA"}, {"measurement": "Mean Noise of the Signal", "setting": "[3]", "result": 1.46}, {"measurement": "Median Current Range", "setting": "[3]", "result": 19.2, "unit": "pA"}, {"measurement": "Median Noise of the Signal", "setting": "[3]", "result": 1.35}, {"measurement": "Standard Deviation of the Current Range", "setting": "[3]", "result": 2.07, "unit": "pA"}, {"measurement": "Standard Deviation of the Noise of the Signal", "setting": "[3]", "result": 0.36}, {"measurement": "Average Signal to Noise (S2N)", "setting": "[4]", "result": 11.9}, {"measurement": "Mean Current Range", "setting": "[4]", "result": 15.6, "unit": "pA"}, {"measurement": "Mean Noise of the Signal", "setting": "[4]", "result": 1.31}, {"measurement": "Median Current Range", "setting": "[4]", "result": 15.6, "unit": "pA"}, {"measurement": "Median Noise of the Signal", "setting": "[4]", "result": 1.24}, {"measurement": "Standard Deviation of the Current Range", "setting": "[4]", "result": 1.76}, {"measurement": "Standard Deviation of the Noise of the Signal", "setting": "[4]", "result": 0.26}, {"measurement": "Average Signal to Noise (S2N)", "setting": "[5]", "result": 13.1}, {"measurement": "Mean Current Range", "setting": "[5]", "result": 15.8, "unit": "pA"}, {"measurement": "Mean Noise of the Signal", "setting": "[5]", "result": 1.21}, {"measurement": "Median Current Range", "setting": "[5]", "result": 15.8, "unit": "pA"}, {"measurement": "Median Noise of the Signal", "setting": "[5]", "result": 1.13}, {"measurement": "Standard Deviation of the Current Range", "setting": "[5]", "result": 1.9, "unit": "pA"}, {"measurement": "Standard Deviation of the Noise of the Signal", "setting": "[5]", "result": 0.28}, {"measurement": "Average Signal to Noise (S2N)", "setting": "[6]", "result": 12.2}, {"measurement": "Mean Current Range", "setting": "[6]", "result": 16, "unit": "pA"}, {"measurement": "Mean Noise of the Signal", "setting": "[6]", "result": 1.31}, {"measurement": "Median Current Range", "setting": "[6]", "result": 16.1, "unit": "pA"}, {"measurement": "Median Noise of the Signal", "setting": "[6]", "result": 1.27}, {"measurement": "Median S2N", "setting": "[6]", "result": 12}, {"measurement": "Percentage of complement slipping forwards", "setting": "[6]", "result": 0.65, "unit": "%"}, {"measurement": "Standard Deviation of S2N", "setting": "[6]", "result": 0.57}, {"measurement": "Standard Deviation of the Current Range", "setting": "[6]", "result": 1.93, "unit": "pA"}, {"measurement": "Standard Deviation of the Noise of the Signal", "setting": "[6]", "result": 0.21}, {"measurement": "Average Signal to Noise (S2N)", "setting": "[7]", "result": 12.9}, {"measurement": "Mean Current Range", "setting": "[7]", "result": 15.9, "unit": "pA"}, {"measurement": "Mean Noise of the Signal", "setting": "[7]", "result": 1.24}, {"measurement": "Median Current Range", "setting": "[7]", "result": 15.9, "unit": "pA"}, {"measurement": "Median Noise of the Signal", "setting": "[7]", "result": 1.19}, {"measurement": "Median S2N", "setting": "[7]", "result": 13.3}, {"measurement": "Percentage of complement slipping forwards", "setting": "[7]", "result": 0.6, "unit": "%"}, {"measurement": "Standard Deviation of S2N", "setting": "[7]", "result": 1.12}, {"measurement": "Standard Deviation of the Current Range", "setting": "[7]", "result": 1.83, "unit": "pA"}, {"measurement": "Standard Deviation of the Noise of the Signal", "setting": "[7]", "result": 0.22}, {"measurement": "Average Signal to Noise (S2N)", "setting": "[8]", "result": 13}, {"measurement": "Mean Current Range", "setting": "[8]", "result": 17.1, "unit": "pA"}, {"measurement": "Mean Noise of the Signal", "setting": "[8]", "result": 1.32}, {"measurement": "Median Current Range", "setting": "[8]", "result": 17.1, "unit": "pA"}, {"measurement": "Median Noise of the Signal", "setting": "[8]", "result": 1.22}, {"measurement": "Standard Deviation of the Current Range", "setting": "[8]", "result": 2.11, "unit": "pA"}, {"measurement": "Standard Deviation of the Noise of the Signal", "setting": "[8]", "result": 0.32}, {"measurement": "Average Signal to Noise (S2N)", "setting": "[9]", "result": 12.8}, {"measurement": "Mean Current Range", "setting": "[9]", "result": 15.6, "unit": "pA"}, {"measurement": "Mean Noise of the Signal", "setting": "[9]", "result": 1.22}, {"measurement": "Median Current Range", "setting": "[9]", "result": 15.5, "unit": "pA"}, {"measurement": "Median Noise of the Signal", "setting": "[9]", "result": 1.16}, {"measurement": "Median S2N", "setting": "[9]", "result": 13.3}, {"measurement": "Percentage of complement slipping forwards", "setting": "[9]", "result": 0.55, "unit": "%"}, {"measurement": "Standard Deviation of S2N", "setting": "[9]", "result": 0.86}, {"measurement": "Standard Deviation of the Current Range", "setting": "[9]", "result": 1.72, "unit": "pA"}, {"measurement": "Standard Deviation of the Noise of the Signal", "setting": "[9]", "result": 0.25}, {"measurement": "slips forward per kilobase", "setting": "[10]", "result": "less than 5 slips forward per kilobase"}, {"measurement": "Average Signal to Noise (S2N)", "setting": "[11]", "result": 11}, {"measurement": "Mean Current Range", "setting": "[11]", "result": 15, "unit": "pA"}, {"measurement": "Mean Noise of the Signal", "setting": "[11]", "result": 1.36}, {"measurement": "Median Current Range", "setting": "[11]", "result": 14.9, "unit": "pA"}, {"measurement": "Median Noise of the Signal", "setting": "[11]", "result": 1.32}, {"measurement": "Median S2N", "setting": "[11]", "result": 11.9}, {"measurement": "Percentage of complement slipping forwards", "setting": "[11]", "result": 0.27, "unit": "%"}, {"measurement": "Standard Deviation of S2N", "setting": "[11]", "result": 1.17}, {"measurement": "Standard Deviation of the Current Range", "setting": "[11]", "result": 1.72}, {"measurement": "Standard Deviation of the Noise of the Signal", "setting": "[11]", "result": 0.23}, {"measurement": "Average Signal to Noise (S2N)", "setting": "[12]", "result": 12.3}, {"measurement": "Mean Current Range", "setting": "[12]", "result": 14.7, "unit": "pA"}, {"measurement": "Mean Noise of the Signal", "setting": "[12]", "result": 1.2}, {"measurement": "Median Current Range", "setting": "[12]", "result": 14.6, "unit": "pA"}, {"measurement": "Median Noise of the Signal", "setting": "[12]", "result": 1.17}, {"measurement": "Standard Deviation of the Current Range", "setting": "[12]", "result": 1.66, "unit": "pA"}, {"measurement": "Standard Deviation of the Noise of the Signal", "setting": "[12]", "result": 0.15}]}
